Measurements: patent US20220135701A1 (Genentech, published 2022)

T1: mouse MerTK (mouse, UniProt Q60805 23-496)
T1 construct: also called MuMER
T1 sequence (looked up): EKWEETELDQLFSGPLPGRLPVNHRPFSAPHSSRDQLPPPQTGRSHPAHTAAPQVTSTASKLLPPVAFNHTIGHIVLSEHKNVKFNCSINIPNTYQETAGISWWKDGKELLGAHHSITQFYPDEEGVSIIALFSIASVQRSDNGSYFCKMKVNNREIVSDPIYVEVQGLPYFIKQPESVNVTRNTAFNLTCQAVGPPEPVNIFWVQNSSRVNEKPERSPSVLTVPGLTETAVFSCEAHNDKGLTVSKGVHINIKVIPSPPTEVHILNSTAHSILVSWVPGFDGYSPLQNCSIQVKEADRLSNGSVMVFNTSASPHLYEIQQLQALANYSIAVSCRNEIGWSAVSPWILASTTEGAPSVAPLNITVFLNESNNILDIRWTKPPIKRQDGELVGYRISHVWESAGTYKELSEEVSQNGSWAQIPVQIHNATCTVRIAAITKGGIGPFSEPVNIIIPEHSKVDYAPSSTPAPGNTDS

T2: cynomolgus monkey MerTK (cynomolgus monkey, UniProt A0A2K5V1H9 32-505)
T2 construct: Soluble analyte in SPR; also called Cyno MerTK
T2 sequence: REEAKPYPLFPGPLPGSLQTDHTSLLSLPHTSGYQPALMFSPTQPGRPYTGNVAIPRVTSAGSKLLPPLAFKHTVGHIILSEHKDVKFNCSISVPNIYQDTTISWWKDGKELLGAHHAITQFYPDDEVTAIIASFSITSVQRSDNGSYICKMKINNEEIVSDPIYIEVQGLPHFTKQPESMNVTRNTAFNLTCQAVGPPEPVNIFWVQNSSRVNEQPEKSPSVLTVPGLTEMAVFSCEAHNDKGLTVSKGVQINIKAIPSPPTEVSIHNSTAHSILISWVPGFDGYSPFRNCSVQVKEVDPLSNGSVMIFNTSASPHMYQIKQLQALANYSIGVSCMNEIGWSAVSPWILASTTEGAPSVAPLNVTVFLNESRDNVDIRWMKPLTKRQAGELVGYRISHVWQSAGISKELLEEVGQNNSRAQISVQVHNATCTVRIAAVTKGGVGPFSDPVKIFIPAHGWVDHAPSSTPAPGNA

T3: rat MerTK (rat, UniProt P57097 23-496, limits assumed)
T3 construct: Soluble analyte in SPR
T3 sequence (looked up): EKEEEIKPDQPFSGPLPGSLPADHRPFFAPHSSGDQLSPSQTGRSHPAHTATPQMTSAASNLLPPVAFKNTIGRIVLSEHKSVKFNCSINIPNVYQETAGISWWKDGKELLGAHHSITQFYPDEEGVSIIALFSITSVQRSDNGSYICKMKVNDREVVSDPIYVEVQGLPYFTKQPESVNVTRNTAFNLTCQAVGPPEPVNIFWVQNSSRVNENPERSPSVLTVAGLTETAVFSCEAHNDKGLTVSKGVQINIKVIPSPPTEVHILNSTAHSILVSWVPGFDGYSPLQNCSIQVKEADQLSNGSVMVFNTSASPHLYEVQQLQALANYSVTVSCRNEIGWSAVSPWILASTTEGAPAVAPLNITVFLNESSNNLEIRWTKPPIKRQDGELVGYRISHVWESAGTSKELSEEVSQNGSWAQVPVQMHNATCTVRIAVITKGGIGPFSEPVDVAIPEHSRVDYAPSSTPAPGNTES

T4: human MerTK (human, UniProt Q12866 26-499)
T4 construct: also called HuMER
T4 sequence: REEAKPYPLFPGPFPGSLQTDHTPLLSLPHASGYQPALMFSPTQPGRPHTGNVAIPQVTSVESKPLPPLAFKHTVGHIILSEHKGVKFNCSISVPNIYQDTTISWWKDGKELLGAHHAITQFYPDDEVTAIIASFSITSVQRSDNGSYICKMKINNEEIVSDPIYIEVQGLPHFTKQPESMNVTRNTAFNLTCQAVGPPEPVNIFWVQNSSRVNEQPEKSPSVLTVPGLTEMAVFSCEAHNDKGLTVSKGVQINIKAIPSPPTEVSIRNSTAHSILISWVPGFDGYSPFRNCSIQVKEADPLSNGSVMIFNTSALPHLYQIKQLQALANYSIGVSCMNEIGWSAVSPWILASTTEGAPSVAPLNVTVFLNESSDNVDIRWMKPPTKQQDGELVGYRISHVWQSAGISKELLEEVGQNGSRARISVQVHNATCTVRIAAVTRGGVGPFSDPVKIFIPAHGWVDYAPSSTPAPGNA

T5: human MerTK on human macrophages (human, UniProt Q12866 21-999)
T5 sequence: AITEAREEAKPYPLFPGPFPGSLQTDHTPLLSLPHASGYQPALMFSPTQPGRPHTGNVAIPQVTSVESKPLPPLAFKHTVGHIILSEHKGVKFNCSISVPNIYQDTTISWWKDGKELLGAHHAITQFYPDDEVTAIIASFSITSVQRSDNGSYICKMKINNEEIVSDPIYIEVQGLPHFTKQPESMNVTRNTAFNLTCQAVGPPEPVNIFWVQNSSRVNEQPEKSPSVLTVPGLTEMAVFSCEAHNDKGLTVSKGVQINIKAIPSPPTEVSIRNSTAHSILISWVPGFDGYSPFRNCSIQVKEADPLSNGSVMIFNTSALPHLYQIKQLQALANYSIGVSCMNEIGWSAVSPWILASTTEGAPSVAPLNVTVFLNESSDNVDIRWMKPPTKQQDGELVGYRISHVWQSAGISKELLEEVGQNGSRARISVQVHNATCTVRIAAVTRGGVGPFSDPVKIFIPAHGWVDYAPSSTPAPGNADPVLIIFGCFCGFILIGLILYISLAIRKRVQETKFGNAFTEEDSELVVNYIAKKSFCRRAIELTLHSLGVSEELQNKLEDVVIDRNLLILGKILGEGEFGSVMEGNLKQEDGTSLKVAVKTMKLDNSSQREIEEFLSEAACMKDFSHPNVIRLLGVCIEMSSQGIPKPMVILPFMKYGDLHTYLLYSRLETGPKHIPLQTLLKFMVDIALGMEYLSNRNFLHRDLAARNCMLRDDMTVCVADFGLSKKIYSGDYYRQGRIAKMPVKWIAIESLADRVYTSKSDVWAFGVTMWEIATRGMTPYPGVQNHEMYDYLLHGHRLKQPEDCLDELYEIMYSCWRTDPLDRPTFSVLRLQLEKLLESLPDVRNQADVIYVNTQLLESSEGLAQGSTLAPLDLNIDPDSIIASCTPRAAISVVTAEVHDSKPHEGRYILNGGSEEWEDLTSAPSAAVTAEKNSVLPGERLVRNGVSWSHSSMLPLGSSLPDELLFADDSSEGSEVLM

T6: MuMER (E23-S496) (mouse, UniProt Q60805 23-496)
T6 construct: range 23-496; also called mouse MerTK extracellular domain
T6 sequence (looked up): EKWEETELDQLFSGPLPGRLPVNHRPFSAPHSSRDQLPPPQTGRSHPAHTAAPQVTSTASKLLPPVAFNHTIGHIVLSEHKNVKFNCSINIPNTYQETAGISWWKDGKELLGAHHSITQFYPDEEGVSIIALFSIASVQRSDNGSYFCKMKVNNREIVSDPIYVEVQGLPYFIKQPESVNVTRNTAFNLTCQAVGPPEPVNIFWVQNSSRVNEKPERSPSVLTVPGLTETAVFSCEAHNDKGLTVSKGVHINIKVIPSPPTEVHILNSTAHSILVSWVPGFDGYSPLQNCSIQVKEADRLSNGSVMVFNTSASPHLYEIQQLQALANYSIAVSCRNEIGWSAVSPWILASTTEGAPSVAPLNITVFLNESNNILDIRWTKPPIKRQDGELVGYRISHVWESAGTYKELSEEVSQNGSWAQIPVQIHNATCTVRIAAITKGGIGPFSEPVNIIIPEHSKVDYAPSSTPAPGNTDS

T7: HuMER (R26-A499) (human, UniProt Q12866 26-499)
T7 construct: Extracellular domain with both Ig-like and both fibronectin-like domains; also called human MerTK extracellular domain
T7 sequence: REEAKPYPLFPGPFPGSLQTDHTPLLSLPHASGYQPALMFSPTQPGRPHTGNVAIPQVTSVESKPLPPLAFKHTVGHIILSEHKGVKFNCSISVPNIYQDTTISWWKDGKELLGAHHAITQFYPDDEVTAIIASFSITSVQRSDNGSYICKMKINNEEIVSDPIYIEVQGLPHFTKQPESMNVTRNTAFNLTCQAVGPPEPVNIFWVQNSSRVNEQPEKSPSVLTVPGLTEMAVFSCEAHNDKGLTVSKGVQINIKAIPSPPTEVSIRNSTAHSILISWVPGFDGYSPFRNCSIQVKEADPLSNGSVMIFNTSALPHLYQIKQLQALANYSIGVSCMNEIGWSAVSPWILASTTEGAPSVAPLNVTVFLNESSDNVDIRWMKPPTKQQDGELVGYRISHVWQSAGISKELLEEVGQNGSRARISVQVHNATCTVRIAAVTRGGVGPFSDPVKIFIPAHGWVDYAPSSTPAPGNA


Experiments:
mouse MerTK [1] = molecular target: T1, mouse MerTK; assay: SPR BIAcore T200, Ab captured, 37C
Procedure: (§1) All binding affinity determinations were obtained using Surface Plasmon Resonance (SPR) measurements from a BIAcore™-T200 instrument. Briefly, each rabbit or humanized antibody was captured to achieve approximately 100 RU (Response Units). Then, 3-fold serial dilutions of MerTK from various species (0.4 nM to 100 nM) diluted in HBS-EP buffer (0.01M HEPES pH 7.4, 0.15M NaCl, 3 mM EDTA and 0.05% v/v surfactant P20) was injected into the BIAcore™-T200 instrument at 25° C. or 37° C. with a flow rate of 30 μl/min. Association rates (kₒₙ) and dissociation rates (koff) were calculated using a simple one-to-one Langmuir binding model (BIAcore T200 evaluation software version 2.0). The equilibrium dissociation constant (KD) was calculated as the ratio koff/kₒₙ.

cynomolgus monkey MerTK [2] = molecular target: T2, cynomolgus monkey MerTK; assay: SPR BIAcore T200, Ab captured, 37C
Procedure: as §1

rat MerTK = molecular target: T3, rat MerTK; assay: SPR BIAcore T200, Ab captured, 37C
Procedure: as §1

human MerTK [3] = molecular target: T4, human MerTK; assay: SPR BIAcore T200, Ab captured, 37C
Procedure: as §1

[4] = molecular target: T5, human MerTK on human macrophages; assay: cell-based or functional assay
MuMER (E23-S496) = molecular target: T6, MuMER (E23-S496); assay: SPR BIAcore T200, Ab captured, 25C
Procedure: (§2) Binding affinity determinations were obtained using Surface Plasmon Resonance (SRP) measurements from a BIAcore™-T200 instrument. Briefly, each rabbit antibody was captured to achieve approximately 100 RU (Response Units). Then, 3-fold serial dilutions of the various MerTK domains (0.4 nM to 100 nM) diluted in HBS-EP buffer (0.01M HEPES pH 7.4, 0.15M NaCl, 3 mM EDTA and 0.05% v/v surfactant P20) was injected into the BIAcore™-T200 instrument at 25° C. or 37° C. with a flow rate of 30 μl/min. Association rates (kₒₙ) and dissociation rates (koff) were calculated using a simple one-to-one Langmuir binding model (BIAcore T200 evaluation software version 2.0). The equilibrium dissociation constant (KD) was calculated as the ratio koff/kₒₙ.
(§3) Antibody epitope determination was assessed by BIAcore analysis for rabbit antibodies binding against both the human and mouse MerTK extracellular domain (HuMER R26-A499 and MuMER E23-S496), Ig1&2 domain, Ig1-only domain, and Ig2-only domain (TABLE 18). Human MerTK and its domains are shown in light gray, while mouse MerTK and its domains are shown in dark gray.

HuMER (R26-A499) = molecular target: T7, HuMER (R26-A499); assay: SPR BIAcore T200, Ab captured, 25C
Procedure: as §2, §3

mouse MerTK [5] = molecular target: T1, mouse MerTK; assay: SPR BIAcore T200, Ab captured, 25C
Procedure: as §1

cynomolgus monkey MerTK [6] = molecular target: T2, cynomolgus monkey MerTK; assay: SPR BIAcore T200, Ab captured, 25C
Procedure: as §1

human MerTK [7] = molecular target: T4, human MerTK; assay: SPR BIAcore T200, Ab captured, 25C
Procedure: as §1

| Kd (mouse MerTK [1]) | Kd (cynomolgus monkey MerTK [2]) | Kd (rat MerTK) | Kd (human MerTK [3]) | IC50 (nM), efferocytosis by human macrophages, Average (3 Donors) [4] | IC50 (nM), efferocytosis by human macrophages, Donor A [4] | IC50 (nM), efferocytosis by human macrophages, Donor B [4] | IC50 (nM), efferocytosis by human macrophages, Donor C [4] | Max Inhibition (%), efferocytosis by human macrophages, Average (3 Donors) [4] | Max Inhibition (%), efferocytosis by human macrophages, Donor A [4] | Max Inhibition (%), efferocytosis by human macrophages, Donor B [4] | Max Inhibition (%), efferocytosis by human macrophages, Donor C [4] | Kd (MuMER (E23-S496)) | Kd (HuMER (R26-A499)) | Kd (mouse MerTK [5]) | Kd (cynomolgus monkey MerTK [6]) | Kd (human MerTK [7]) | Binder |
| --- | --- | --- | --- | --- | --- | --- | --- | --- | --- | --- | --- | --- | --- | --- | --- | --- | --- |
| 0.9 nM | 3.2 nM | 2.4 nM | 6.9 nM | 0.95 nM | 0.52 nM | 1.2 nM | 1.2 nM | 61% | 64% | 58% | 62% | – | – | – | – | – | h10C3.v14 (antibody, V domains shown, Humanized, human IgG1; also called 10C3 Humanized polished mAb) VH: EVQLVESGGGLVQPGGSLRLSCAASGFSLSGYTMGWVRQAPGKGLEYIGVISSGGTTYYTNWAKGRFTISKDNSKNTLYLQMGSLRAEDMAVYYCARVAFTAYGGGGFPTLHRLDLWGQGTLVTVSS VL: DQVLTQSPDSLAVSLGERATINCQSSESVYNNDYLAWYQQKPGQPPKLLIYSASTLASGVPDRFSGSGSGTDFTLTISSLQAEDVAVYYCAGGYLGNNVFGGGTKVEIK |
| – | – | – | – | – | – | – | – | – | – | – | – | 1.2 nM | 4.3 nM | 1.2 nM | 3.8 nM | 4.3 nM | Rbt13D8 (antibody, V domains shown, Recombinant rabbit monoclonal antibody, Expi293, protein A purified) VH: QSLEESGGRLVTPGTPLTLTCTVSGFSFSSYSMGWVRQAPGKGPEYIGVISASGTTYYASWVNGRFTISKTSTTMDLKMTSPTAADTATYFCARAAFTAYNRGSCVIHRLDLWGQGTLVTVSS VL: AQVLTQTASSVSAAVGGTVTINCQASQSVYDSKWLAWYQQKPGQPPKLLIYSASTLASGVPSRFKGSGSGTQFTLTISDLECDDAATYYCAGAYTDNIVFGGGTEVVVK |
